Measurements from patent publication US20240018260A1 (AMUNIX PHARMACEUTICALS, published 2024).

T1: human EpCAM on EpCAM positive human carcinoma cells (SW480, SK-OV-3) (human, UniProt P16422 24-314)
T1 sequence (looked up): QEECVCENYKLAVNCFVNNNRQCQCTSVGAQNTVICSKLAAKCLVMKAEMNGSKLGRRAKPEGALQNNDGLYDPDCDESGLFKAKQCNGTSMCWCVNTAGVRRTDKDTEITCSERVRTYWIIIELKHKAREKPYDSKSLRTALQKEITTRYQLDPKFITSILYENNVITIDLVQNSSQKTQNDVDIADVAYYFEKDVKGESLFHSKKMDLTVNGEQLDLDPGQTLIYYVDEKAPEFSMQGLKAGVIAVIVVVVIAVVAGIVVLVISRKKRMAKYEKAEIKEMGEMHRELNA


Target: T1, human EpCAM on EpCAM positive human …
Assay: cell-based or functional assay

Row | Binder | EC50, LDH release cytotoxicity, PBMC:SW480 5:1
1 | Protease-treated (MMP-9 cleaved) AC1278, His(8)-aEpCAM-aCD3 cleaved fragment (bispecific antibody) HHHHHHHHELVMTQSPSSLTVTAGEKVTMSCKSSQSLLNSGNQKNYLTWYQQKPGQPPKLLIYWASTRESGVPDRFTGSGSGTDFTLTISSVQAEDLAVYYCQNDYSYPLTFGAGTKLEIKGGGGSGGGGSGGGGSEVQLLEQSGAELVRPGTSVKISCKASGYAFTNYWLGWVKQRPGHGLEWIGDIFPGSGNIHYNEKFKGKATLTADKSSSTAYMQLSSLTFEDSAVYFCARLRNWDEPMDYWGQGTTVTVSSGGGGSDVQLVQSGAEVKKPGASVKVSCKASGYTFTRYTMHWVRQAPGQGLEWIGYINPSRGYTNYADSVKGRFTITTDKSTSTAYMELSSLRSEDTATYYCARYYDDHYCLDYWGQGTTVTVSSGEGTSTGSGGSGGSGGADDIVLTQSPATLSLSPGERATLSCRASQSVSYMNWYQQKPGKAPKRWIYDTSKVASGVPARFSGSGSGTDYSLTINSLEAEDAATYYCQQWSSNPLTFGGGTKVEIKGTAEAASASGLSGRSDNHSPLG | 0.0089 nM
2 | AC1278 His(8)-aEpCAM-aCD3-BSRS1-XTEN_AE864, protease-untreated (intact) anti-EpCAM×anti-CD3 ProTIA (bispecific antibody) HHHHHHHHELVMTQSPSSLTVTAGEKVTMSCKSSQSLLNSGNQKNYLTWYQQKPGQPPKLLIYWASTRESGVPDRFTGSGSGTDFTLTISSVQAEDLAVYYCQNDYSYPLTFGAGTKLEIKGGGGSGGGGSGGGGSEVQLLEQSGAELVRPGTSVKISCKASGYAFTNYWLGWVKQRPGHGLEWIGDIFPGSGNIHYNEKFKGKATLTADKSSSTAYMQLSSLTFEDSAVYFCARLRNWDEPMDYWGQGTTVTVSSGGGGSDVQLVQSGAEVKKPGASVKVSCKASGYTFTRYTMHWVRQAPGQGLEWIGYINPSRGYTNYADSVKGRFTITTDKSTSTAYMELSSLRSEDTATYYCARYYDDHYCLDYWGQGTTVTVSSGEGTSTGSGGSGGSGGADDIVLTQSPATLSLSPGERATLSCRASQSVSYMNWYQQKPGKAPKRWIYDTSKVASGVPARFSGSGSGTDYSLTINSLEAEDAATYYCQQWSSNPLTFGGGTKVEIKGTAEAASASGLSGRSDNHSPLGLAGSPGSPAGSPTSTEEGTSESATPESGPGTSTEPSEGSAPGSPAGSPTSTEEGTSTEPSEGSAPGTSTEPSEGSAPGTSESATPESGPGSEPATSGSETPGSEPATSGSETPGSPAGSPTSTEEGTSESATPESGPGTSTEPSEGSAPGTSTEPSEGSAPGSPAGSPTSTEEGTSTEPSEGSAPGTSTEPSEGSAPGTSESATPESGPGTSTEPSEGSAPGTSESATPESGPGSEPATSGSETPGTSTEPSEGSAPGTSTEPSEGSAPGTSESATPESGPGTSESATPESGPGSPAGSPTSTEEGTSESATPESGPGSEPATSGSETPGTSESATPESGPGTSTEPSEGSAPGTSTEPSEGSAPGTSTEPSEGSAPGTSTEPSEGSAPGTSTEPSEGSAPGTSTEPSEGSAPGSPAGSPTSTEEGTSTEPSEGSAPGTSESATPESGPGSEPATSGSETPGTSESATPESGPGSEPATSGSETPGTSESATPESGPGTSTEPSEGSAPGTSESATPESGPGSPAGSPTSTEEGSPAGSPTSTEEGSPAGSPTSTEEGTSESATPESGPGTSTEPSEGSAPGTSESATPESGPGSEPATSGSETPGTSESATPESGPGSEPATSGSETPGTSESATPESGPGTSTEPSEGSAPGSPAGSPTSTEEGTSESATPESGPGSEPATSGSETPGTSESATPESGPGSPAGSPTSTEEGSPAGSPTSTEEGTSTEPSEGSAPGTSESATPESGPGTSESATPESGPGTSESATPESGPGSEPATSGSETPGSEPATSGSETPGSPAGSPTSTEEGTSTEPSEGSAPGTSTEPSEGSAPGSEPATSGSETPGTSESATPESGPGTSTEPSEGSAPG | 0.288 nM
